Experimental data from article PMC10397247.
Values belong to the binder of their own block, whether it stands above or below them.

Tests used:
[1] = molecular target: T1, P9A-bS; experiment: two-hybrid library CCNG1;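 also: natural log of median RNA to DNA barcode read ratio; higher means stronger binding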
T1 chain: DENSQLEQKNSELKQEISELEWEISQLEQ

[2] = molecular target: T2, P4A-bS; experiment: two-hybrid library CCNG1;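 also: natural log of median RNA to DNA barcode read ratio; higher means stronger binding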
T2 chain: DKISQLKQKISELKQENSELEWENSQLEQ

[3] = molecular target: T3, P5A-bS; experiment: two-hybrid library CCNG1;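 also: natural log of median RNA to DNA barcode read ratio; higher means stronger binding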
T3 chain: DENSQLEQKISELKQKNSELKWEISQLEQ

[4] = molecular target: T4, P8A-bS; experiment: two-hybrid library CCNG1;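 also: natural log of median RNA to DNA barcode read ratio; higher means stronger binding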
T4 chain: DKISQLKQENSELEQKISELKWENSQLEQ

[5] = molecular target: T5, P6A-bS; experiment: two-hybrid library CCNG1;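 also: natural log of median RNA to DNA barcode read ratio; higher means stronger binding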
T5 chain: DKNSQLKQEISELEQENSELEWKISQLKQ

[6] = molecular target: T6, P3A-bS; experiment: two-hybrid library CCNG1;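 also: natural log of median RNA to DNA barcode read ratio; higher means stronger binding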
T6 chain: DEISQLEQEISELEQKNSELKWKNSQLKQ

[7] = molecular target: T7, P2A-bS; experiment: two-hybrid library CCNG1
T7 chain: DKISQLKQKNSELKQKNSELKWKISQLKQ

[8] = molecular target: T8, P7A-bS; experiment: two-hybrid library CCNG1
T8 chain: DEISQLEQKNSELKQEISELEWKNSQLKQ

[9] = molecular target: T9, P1A-bS; experiment: two-hybrid library CCNG1
T9 chain: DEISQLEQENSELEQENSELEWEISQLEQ

[10] = molecular target: T10, 4H968-bH; experiment: two-hybrid library CCNG1
T10 chain: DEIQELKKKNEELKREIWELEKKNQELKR

[11] = molecular target: T11, 4H797-bH; experiment: two-hybrid library CCNG1
T11 chain: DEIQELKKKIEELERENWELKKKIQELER

[12] = molecular target: T12, 4H754-bH; experiment: two-hybrid library CCNG1
T12 chain: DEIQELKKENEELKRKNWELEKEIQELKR

[13] = molecular target: T13, 4H3010-bH; experiment: two-hybrid library CCNG1
T13 chain: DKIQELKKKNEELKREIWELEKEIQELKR

[14] = molecular target: T14, 4H346-bH; experiment: two-hybrid library CCNG1
T14 chain: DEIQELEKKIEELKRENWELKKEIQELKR

[15] = molecular target: T15, 4H3112-bH; experiment: two-hybrid library CCNG1
T15 chain: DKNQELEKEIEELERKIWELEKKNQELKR

[16] = molecular target: T16, 4H953-bH; experiment: two-hybrid library CCNG1
T16 chain: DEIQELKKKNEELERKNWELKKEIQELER

[17] = molecular target: T17, 4H3427-bH; experiment: two-hybrid library CCNG1
T17 chain: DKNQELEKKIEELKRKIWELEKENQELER

[18] = molecular target: T18, 4H2586-bH; experiment: two-hybrid library CCNG1
T18 chain: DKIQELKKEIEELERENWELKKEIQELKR

[19] = molecular target: T19, 4H4073-bH; experiment: two-hybrid library CCNG1
T19 chain: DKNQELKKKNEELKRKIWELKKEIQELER

[20] = molecular target: T20, 4H2627-bH; experiment: two-hybrid library CCNG1
T20 chain: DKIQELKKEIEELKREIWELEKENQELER

[21] = molecular target: T21, 4H1831-bH; experiment: two-hybrid library CCNG1
T21 chain: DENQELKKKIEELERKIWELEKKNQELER

[22] = molecular target: T22, 4H3926-bH; experiment: two-hybrid library CCNG1
T22 chain: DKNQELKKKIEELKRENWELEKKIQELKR

[23] = molecular target: T23, 4H918-bH; experiment: two-hybrid library CCNG1
T23 chain: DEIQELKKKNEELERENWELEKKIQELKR

[24] = molecular target: T24, 4H170-bH; experiment: two-hybrid library CCNG1
T24 chain: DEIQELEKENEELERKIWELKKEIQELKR

[25] = molecular target: T25, 4H780-bH; experiment: two-hybrid library CCNG1
T25 chain: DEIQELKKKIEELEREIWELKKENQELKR

[26] = molecular target: T26, 4H683-bH; experiment: two-hybrid library CCNG1
T26 chain: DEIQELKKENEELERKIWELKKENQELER

[27] = molecular target: T27, 4H575-bH; experiment: two-hybrid library CCNG1
T27 chain: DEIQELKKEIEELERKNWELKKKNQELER

[28] = molecular target: T28, 4H2702-bH; experiment: two-hybrid library CCNG1
T28 chain: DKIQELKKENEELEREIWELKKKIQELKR

[29] = molecular target: T29, 4H2673-bH; experiment: two-hybrid library CCNG1
T29 chain: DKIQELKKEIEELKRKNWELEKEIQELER

[30] = molecular target: T30, 4H457-bH; experiment: two-hybrid library CCNG1
T30 chain: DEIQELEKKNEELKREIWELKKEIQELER

[31] = molecular target: T31, 4H855-bH; experiment: two-hybrid library CCNG1
T31 chain: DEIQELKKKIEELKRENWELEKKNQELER

[32] = molecular target: T32, 4H3651-AA; experiment: two-hybrid library CCmax; settings: mean of both orientations
T32 chain: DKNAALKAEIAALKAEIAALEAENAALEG

[33] = molecular target: T33, 4H2898-AA; experiment: two-hybrid library CCmax; settings: mean of both orientations
T33 chain: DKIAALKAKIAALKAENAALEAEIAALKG

[34] = molecular target: T34, 4H3705-AA; experiment: two-hybrid library CCmax; settings: mean of both orientations
T34 chain: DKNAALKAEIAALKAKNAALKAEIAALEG

[35] = molecular target: T35, 4H_BCR; experiment: two-hybrid library CCmax; settings: mean of both orientations
T35 chain: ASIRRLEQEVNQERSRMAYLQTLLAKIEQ

[36] = molecular target: 4H_GCN4; experiment: two-hybrid library CCmax
[37] = molecular target: T36, 4H2721-AA; experiment: two-hybrid library CCmax; settings: mean of both orientations
T36 chain: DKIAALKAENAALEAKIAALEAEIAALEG

[38] = molecular target: T37, 4H895-AA; experiment: two-hybrid library CCmax; settings: mean of both orientations
T37 chain: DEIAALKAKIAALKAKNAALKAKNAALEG

[39] = molecular target: T38, 4H58-AA; experiment: two-hybrid library CCmax; settings: mean of both orientations
T38 chain: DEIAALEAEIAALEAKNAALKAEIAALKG

[40] = molecular target: T39, 4H3782-AA; experiment: two-hybrid library CCmax; settings: mean of both orientations
T39 chain: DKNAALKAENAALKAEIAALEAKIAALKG

[41] = molecular target: T40, 4H355-AA; experiment: two-hybrid library CCmax; settings: mean of both orientations
T40 chain: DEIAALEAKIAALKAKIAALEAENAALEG

[42] = molecular target: T41, 4H1802-AA; experiment: two-hybrid library CCmax
T41 chain: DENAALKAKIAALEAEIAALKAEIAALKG

[43] = molecular target: T42, 4H3020-AA; experiment: two-hybrid library CCmax; settings: mean of both orientations
T42 chain: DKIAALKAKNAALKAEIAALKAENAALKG

[44] = molecular target: T43, 4H3365-AA; experiment: two-hybrid library CCmax; settings: mean of both orientations
T43 chain: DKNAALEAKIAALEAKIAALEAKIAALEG

[45] = molecular target: GCN2_T; experiment: two-hybrid library CCmax
[46] = molecular target: T44, 4H465-AA; experiment: two-hybrid library CCmax; settings: mean of both orientations
T44 chain: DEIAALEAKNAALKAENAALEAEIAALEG

[47] = molecular target: T45, 4H535-AA; experiment: two-hybrid library CCmax; settings: mean of both orientations
T45 chain: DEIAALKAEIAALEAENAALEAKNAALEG

[48] = molecular target: T46, 4H2750-AA; experiment: two-hybrid library CCmax; settings: mean of both orientations
T46 chain: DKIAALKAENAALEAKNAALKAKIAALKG

[49] = molecular target: T47, 4H_APH; experiment: two-hybrid library CCmax; settings: mean of both orientations
T47 chain: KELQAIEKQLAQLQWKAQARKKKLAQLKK

[50] = molecular target: T48, 4H486-AA; experiment: two-hybrid library CCmax; settings: mean of both orientations
T48 chain: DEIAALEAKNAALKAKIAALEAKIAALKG

[51] = molecular target: T49, 4H656-AA; experiment: two-hybrid library CCmax
T49 chain: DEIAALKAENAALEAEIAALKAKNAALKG

[52] = molecular target: T50, 4H2600-AA; experiment: two-hybrid library CCmax; settings: mean of both orientations
T50 chain: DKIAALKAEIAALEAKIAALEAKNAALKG

4H_GCN4, sequence (chain, as listed by the source): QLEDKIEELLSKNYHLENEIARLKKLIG

interaction score [1]: -1.08
interaction score [2]: -0.182
interaction score [3]: -0.939
interaction score [4]: -0.899
interaction score [5]: 0.0466
interaction score [6]: -0.598
interaction score [7]: 1.9
interaction score [8]: -1.96
interaction score [9]: -0.982
Binder: DEISQLEQENSELEQENSELEWEISQLEQ [P1A-bS]

interaction score [10]: 1.47
interaction score [11]: 0.264
interaction score [12]: 1.02
interaction score [13]: 2.38
interaction score [14]: -0.205
interaction score [15]: 0.343
interaction score [16]: 0.0231
interaction score [17]: 0.596
interaction score [18]: -1.02
interaction score [19]: 1.14
interaction score [20]: 0.774
interaction score [21]: -0.0127
interaction score [22]: 0.549
interaction score [23]: 0.183
interaction score [24]: 0.761
interaction score [25]: -0.492
interaction score [26]: -0.173
interaction score [27]: -1.59
interaction score [28]: 1.84
interaction score [29]: -0.0221
interaction score [30]: 1.82
interaction score [31]: -0.762
Binder: DEIQELEKENEELERKIWELKKEIQELKR [4H170-bH]

interaction score [32]: -1.48
interaction score [33]: -1.81
interaction score [34]: -1.42
interaction score [35]: -1.68
interaction score [36]: -1.26
interaction score [37]: -1.29
interaction score [38]: -1.85
interaction score [39]: -1.15
interaction score [40]: -1.38
interaction score [41]: -0.981
interaction score [42]: 1.63
interaction score [43]: -1.81
interaction score [44]: -1.3
interaction score [45]: -1.36
interaction score [46]: -1.48
interaction score [47]: -1.73
interaction score [48]: -1.63
interaction score [49]: -1.86
interaction score [50]: -1.28
interaction score [51]: -2.89
interaction score [52]: -0.95
Binder: DENAALKAKIAALEAEIAALKAEIAALKG [4H1802-AA]
